According to paper PMC11731451, “Phosphorylation of Lamin A/C regulates the structural integrity of the nuclear envelope” (The Journal of Biological Chemistry, 2024):

Molecular target: T1, GST-tagged Lamin A-C178 (250-428 aa), wild type (UniProt P02545 250-428)
T1 construct: Lamin A, fragment C178, residues 250-428; also called Lamin-A-C178-WT
T1 sequence (looked up): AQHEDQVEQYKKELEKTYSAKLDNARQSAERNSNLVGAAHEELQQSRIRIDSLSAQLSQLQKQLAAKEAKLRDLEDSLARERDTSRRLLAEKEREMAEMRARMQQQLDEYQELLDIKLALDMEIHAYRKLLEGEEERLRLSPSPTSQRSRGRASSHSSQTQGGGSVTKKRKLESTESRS
Assay: pull-down; 10 ug GST-tagged protein on glutathione agarose beads incubated with 10 ug soluble recombinant protein; PBS with 0.1% Triton X-100, 4 C, 4 h; three washes; SDS-PAGE with Coomassie staining; salt concentration also varied (Fig. S4B)
Conditions: both partners purified

binding result: binds
B1: His-tagged Lamin A-N125 (1-125 aa), wild type (domain or fragment, UniProt P02545 1-125, looked up)
chain: METPSQRRATRSGAQASSTPLSPTRITRLQEKEDLQELNDRLAVYIDRVRSLETENAGLRLRITESEEVVSREVSGIKAAYEAELGDARKTLDSVAKERARLQLELSKVREEFKELKARNTKKEG
notes: The cell work is in human HeLa cells; also called Lamin A-N125-WT; source: E. coli BL21, purified (Ni-NTA agarose, dialysed)
